Assay results taken from US20140105905A1 (Amgen, published 2014).

Key:
[1] = target: T1, recombinant human Interleukin-8 (human, UniProt P10145 28-99); assay: calculated from KinExA kon and Kd
T1 construct: also called rhIL-8; IL-8
T1 sequence (looked up): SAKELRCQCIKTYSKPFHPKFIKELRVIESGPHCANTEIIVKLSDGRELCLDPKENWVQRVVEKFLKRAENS
From the text: (§1) For measuring the association rate constant using KinExA, the same rhIL-8-coupled beads were used as the probe and the “Kinetics, Direct” method was used. The “Kinetics, Direct” experiments by KinExA are identical to KinExA equilibrium assays with respect to bead column height, antibody capture, antibody concentration and antibody detection. Briefly, the mAb was mixed with an amount of antigen that bound approximately 80% of the mAb in the equilibrium experiments and the free antibody present in the sample was probed repeatedly, pre-equilibrium. […] The volumes and flow rates of the antigen-mAb mixtures and the Cy5-labeled secondary antibody were varied depending upon the mAb tested. Data was analyzed utilizing the KinExA analysis software that comes with the KinExA 3000 instrument. This software graphically represents the decrease in binding signals over time, and fits the collected data points to an exact solution of the kinetic differential equations for binding. From this curve, an optimal solution for the kₒₙ is determined. The koff is indirectly calculated from solutions for the kₒₙ and Kd.
(§2) The on-rate measurement by KinExA is not limited by the mAb concentration used in the experiment. […] The concentration of mAb used for on-rate experiments was the same as those used in equilibrium binding experiments. An amount of IL-8 that bound 80% of the mAb in equilibrium binding experiments was mixed with the mAb. The amount of free mAb left in the mixture was measured in KinExA by flowing 1 ml of the mixture repeatedly through rhIL-8 coupled to NHS-activated Sepharose beads and detected using 1 ml of 2.0 μg/ml of Cy5-labeled goat anti-human IgG Fcγ fragment-specific secondary antibody. The kₒₙ was measured using the KinExA software by the “Kinetic, Direct” method and the 95% confidence intervals are given as kₒₙ range. The koff for the mAb was calculated from the measured kₒₙ and Kd of the respective mAb.

[2] = target: T1, recombinant human Interleukin-8; assay: KinExA equilibrium, optimized, n-curve analysis, mAb 0.68, 2.0 and 13.7 pM
From the text: The equilibrium dissociation constant (Kd) was obtained from nonlinear regression analysis of the data using a one-site homogeneous binding model contained within the software [Blake et Al., Anal. Biochem. 272:123, 1999; Jones et al., Bioconjug Chem 13:408, 2002]. The software calculates the Kd and determines the 95% confidence interval by fitting the data points to a theoretical Kd curve. The 95% confidence interval is given as Kd low and Kd high.
A proportionate amount of free mAb present in the equilibrium mixture was measured in KinExA under optimized conditions. For example, for the mixtures containing the low concentration of mAb, 18-36 ml of the sample was flown through rhIL-8 coupled to NHS-activated Sepharose beads and detected using 1-2 ml of 2.0 μg/ml of Cy5-labeled goat anti-human IgG Fcγ fragment-specific secondary antibody. The Kd was calculated using KinExA software by using the “n-curve analysis” selection.

[3] = target: T2, IL-8 peptide ELRCQCIKTYSK (human); assay: overlapping IL-8 peptides on a membrane; column "Recognized epitope"
T2 peptide: ELRCQCIKTYSK
Experimental: Briefly, overlapping IL-8 peptides, which were each two amino acids c-terminal to the previous peptide (as shown in FIG. 8) were prepared and attached to a membrane. Antibodies were then added and allowed to bind to the peptides.

[4] = target: T1, recombinant human Interleukin-8; assay: KinExA equilibrium in solution, 36 h, mAb 20 pM
Experimental: The experiments with KinExA were performed using an automated flow immunoassay system, KinExA 3000 [Ohmura et al., Anal. Chem. 73:3392, 2001] in which rhIL-8-coupled beads served as the solid phase. […] Antigen/antibody complexes were incubated at RT for 36 h to 144 h to allow equilibrium to be reached. The mixture was drawn through the rhIL-8-coupled beads to accumulate unbound antibody. The captured anti-hIL-8 mAb is directly proportional to the remaining free binding sites and was detected using solutions containing Cy5-conjugated anti-human secondary antibody in sample buffer. The concentrations, volumes, and flow rates of the secondary antibody solutions were varied to optimize the signal to noise ratio in each experiment. The bound signals were converted into relative values as a proportion of control in the absence of rhIL-8. The equilibrium dissociation constant (Kd) was obtained from nonlinear regression analysis of the data using a one-site homogeneous binding model contained within the software [Blake et Al., Anal. Biochem. 272:123, 1999; Jones et al., Bioconjug Chem 13:408, 2002]. […]
A proportionate amount of free mAb present in the equilibrium mixture was measured by flowing 0.25 ml to 3 ml of the sample on rhIL-8 coupled to CNBr-activated Sepharose beads and detected using 1.0 ml of 1.7 μg/ml of Cy5-labeled goat anti-human IgG Fcγ fragment-specific secondary antibody. […]

[5] = target: T1, recombinant human Interleukin-8; assay: KinExA "Kinetics, Direct" method
From the text: as §1, §2

[6] = target: T1, recombinant human Interleukin-8; assay: not named in this sentence (summary of the filing's own affinity results)
[7] = target: T1, recombinant human Interleukin-8; assay: KinExA equilibrium, low mAb concentration experiments analyzed in single curves
Experimental: Antigen/antibody complexes were incubated at RT for 36 h to 144 h to allow equilibrium to be reached. The mixture was drawn through the rhIL-8-coupled beads to accumulate unbound antibody. The captured anti-hIL-8 mAb is directly proportional to the remaining free binding sites and was detected using solutions containing Cy5-conjugated anti-human secondary antibody in sample buffer. The concentrations, volumes, and flow rates of the secondary antibody solutions were varied to optimize the signal to noise ratio in each experiment. The bound signals were converted into relative values as a proportion of control in the absence of rhIL-8. The equilibrium dissociation constant (Kd) was obtained from nonlinear regression analysis of the data using a one-site homogeneous binding model contained within the software [Blake et Al., Anal. Biochem. 272:123, 1999; Jones et al., Bioconjug Chem 13:408, 2002]. […]
A proportionate amount of free mAb present in the equilibrium mixture was measured in KinExA under optimized conditions. For example, for the mixtures containing the low concentration of mAb, 18-36 ml of the sample was flown through rhIL-8 coupled to NHS-activated Sepharose beads and detected using 1-2 ml of 2.0 μg/ml of Cy5-labeled goat anti-human IgG Fcγ fragment-specific secondary antibody. […]

B1: anti-hIL-8 mAb 928 (antibody, human IgG2, V domains shown)
VH: QVQLVESGGGVVQPGRSLRLSCAASGFTFSSYGMLWVRQAPGKGLEWVADISYDGSNKYYADSVKGRFTISRDNSKNTLYLQMNSLRAEDTAVFYCARDRIAVADYWGQGTLVTVSS
VL: EIVLTQSPGTLSLSPGERATLSCRASQSVSSSFLAWYQQKPGQAPRLLIYGASSRATGIPDRFSGSGSGTDFILTISRLEPEDFAVYYCQQYDSSFTFGPGTKVDIK
- koff [1]: 3.7e-06 s⁻¹
- Kd [2]: 0.613 pM
- binding result [3]: binds
- Kd [4]: 0.057 pM
- kon [5]: 6e+06 M⁻¹ s⁻¹
- Kd [6]: ~0.06 pM
- Kd [7]: 0.59 pM
